# B1: SH3 and multiple ankyrin repeat domains protein 2 (Rattus norvegicus (Rat)), Q9QX74-4 (parent)
# chain: MMSVPGGGAATVMMTGYNNGRYPRNSLYSDCIIEDKTVVLQKKDNEGFGFVLRGAKADTPIEEFTPTPAFPALQYLESVDEGGVAWQAGLRTGDFLIEVNNENVVKVGHRQVVNMIRQGGNHLVLKVVTVTRNLDPDDTARKKAPPPPKRAPTTALTLRSKSMTAELEELVDKASVRKKKDKPEEIVPASKPSRTAENVAIESRVATIKQRPTSRCFPAASDVNSVYERQGIAVMTPTVPGSPKGPFLGLPRGTMRRQKSIDSRIFLSGITEEERQFLAPPMLKFTRSLSMPDTSEDIPPPPQSVPPSPPPPSPTTYNCPRSPTPRVYGTIKPAFNQNPVAKVPPATRSDTVATMMREKGMFYRRELDRFSLDSEDVYSRSPAPQAAFRTKRGQMPENPYSEVGKIASKAVYVPAKPARRKGMLVKQSNVEDSPEKTCSIPIPTIIVKEPSTSSSGKSSQGSSMEIDPQATEPGQLRPDDSLTVSSPFAAAIAGAVRDREKRLEARRNSPAFLSTDLGDEDVGLGPPAPRMQPSKFPEEGGFGDEDETEQPLLPTPGAAPRELENHFLGGGEAGAQGEAGGPLSSTSKAKGPESGPAAALKSSSPASPENYVHPLTGRLLDPSSPLALALSARDRAMQESQQGHKGEAPKADLNKPLYIDTKMRPSVESGFPPVTRQNTRGPLRRQETENKYETDLSKDRRADDKKNMLINIVDTAQQKSAGLLMVHTVDIPVAGPPLEEEEDREDGDTKPDHSPSTVPEGVPKTEGALQISAAPEPAAAPGRTIVAAGSVEEAVILPFRIPPPPLASVDLDEDFLFTEPLPPPLEFANSFDIPDDRAASVPALADLVKQKKSDTPQPPSLNSSQPANSTDSKKPAGISNCLPSSFLPPPESFDAVTDSGIEEVDSRSSSDHHLETTSTISTVSSISTLSSEGGESMDTCTVYADGQAFVVDKPPVPPKPKMKPIVHKSNALYQDTLPEEDTDGFVIPPPAPPPPPGSAQAGVAKVIQPRTSKLWGDVTEVKSPILSGPKANVISELNSILQQMNRGKSVKPGEGLELPVGAKSANLAPRSPEVMSTVSGTRSTTVTFTVRPGTSQPITLQSRPPDYESRTSGPRRAPSPVVSPTELSKEILPTPPSAAAASPSPTLSDVFSLPSQSPAGDLFGLNPAGRSRSPSPSILQQPISNKPFTTKPVHLWTKPDVADWLESLNLGEHKETFMDNEIDGSHLPNLQKEDLIDLGVTRVGHRMNIERALKQLLDR
# Variants of: B1
# Conditions: with cftr_mouse Cftr
row,effect of a mutation on the interaction,Variant
1,with no effect,H109Q
2,disrupting interaction,H109R
3,disrupting interaction,H109A

# Source: IntAct's records for PubMed 14679199
